PMC9280689, “Resistance to Powdery Mildew in Qingke Involves the Accumulation of Aromatic Phenolamides Through Jasmonate-Mediated Activation of Defense-Related Genes” (Frontiers in Plant Science, 2022)

Experiments:
Experiment in all cases: purified protein
purified protein [1] = substrate: CC(C)(COP(=O)(O)OP(=O)(O)OC[C@H]1O[C@@H](n2cnc3c(N)ncnc32)[C@H](O)[C@@H]1OP(=O)(O)O)[C@@H](O)C(=O)NCCC(=O)NCCSC(=O)/C=C/c1ccc(O)c(O)c1; settings: acyl donor, amine acceptor 100 μM (which amine not told), 10 mM MgCl2, Tris-HCl pH 7.4, 30 °C
purified protein [2] = substrate: CC(C)(COP(=O)(O)OP(=O)(O)OC[C@H]1O[C@@H](n2cnc3c(N)ncnc32)[C@H](O)[C@@H]1OP(=O)(O)O)[C@@H](O)C(=O)NCCC(=O)NCCSC(=O)/C=C/c1ccc(O)cc1; settings: acyl donor, amine acceptor 100 μM (which amine not told), 10 mM MgCl2, Tris-HCl pH 7.4, 30 °C
purified protein [3] = substrate: NCCCCN; settings: acyl acceptor, feruloyl-CoA 50 μM as donor, 10 mM MgCl2, Tris-HCl pH 7.4, 30 °C
purified protein [4] = substrate: COc1cc(/C=C/C(=O)SCCNC(=O)CCNC(=O)[C@H](O)C(C)(C)COP(=O)(O)OP(=O)(O)OC[C@H]2O[C@@H](n3cnc4c(N)ncnc43)[C@H](O)[C@@H]2OP(=O)(O)O)ccc1O; settings: acyl donor, amine acceptor 100 μM (which amine not told), 10 mM MgCl2, Tris-HCl pH 7.4, 30 °C

B1: HvACT (Hordeum vulgare) (protein)
chain: MKITVHSSKAVKPEYGACGLAPGCTADVVPLTVLDKANFDTYISVIYAFHAPAPPNAVLEAGLGRALVDYREWAGRLGVDASGGRAILLNDAGARFVEATADVALDSVMPLKPTSEVLSLHPSGDDGPEELMLIQVTRFACGSLVVGFTTQHIVSDGRSTGNFFVAWSQATRGAAIDPVPVHDRASFFHPREPLHVEYEHRGVEFKPCEKAHDVVCGADGDEDEVVVNKVHFSREFISKLKAHASAGAPRPCSTLQCVVAHLWRSMTMARGLDGGETTSVAIAVDGRARMSPQVPDGYTGNVILWARPTTTAGELVTRPVKHAVELISREVARINDGYFKSFIDFANSGAVEKERLVATADAADMVLSPNIEVDSWLRIPFYDMDFGGGRPFFFMPSYLPVEGLLILLPSFLGDGSVDAYVPLFSRDMNTFKNCCYSLD
- Km (purified protein [1]): 483.5 ± 63.2 µM
- kcat (purified protein [1]): 0.175 s⁻¹
- Km (purified protein [2]): 104.9 ± 26.3 µM
- kcat (purified protein [2]): 1.04 s⁻¹
- kcat/Km (purified protein [2]): 10000 M⁻¹ s⁻¹
- Km (purified protein [3]): 7.11 ± 2.14 µM
- kcat (purified protein [3]): 2.51 s⁻¹
- kcat/Km (purified protein [3]): 353000 M⁻¹ s⁻¹
- Km (purified protein [4]): 161.3 ± 36.5 µM
- kcat (purified protein [4]): 0.736 s⁻¹
- kcat/Km (purified protein [4]): 5000 M⁻¹ s⁻¹
